Results: the supplement of paper PMC7877785
± gives the uncertainty stated by the source.

Assay: self-splicing fitness, log relative to wild type (ln ratio); higher = more splicing; Tetrahymena group I intron in knt gene, E. coli kanamycin selection, DiMSum; sequences stand for … in CUCUCU…GGAGGGAAAAGUUAUCAGGCAUGCACCUGGUAGCUAGUCUUUAAACCAAUAGAUUGCAUCGGUUUAAAAGGCAAGACCGUCAAAUUGCGGGAAAGGGGUCAACAGCCGUUCAGUACCAAGUCUCAGGGGAAACUUUGAGAUGGCCUUGCAAAGGGUAUGGUAAUAAGCUGACGGACAUGGUCCUAACCACGCAGCCAAGUCCUAAGUCAACAGAUCUUCUGUUGAUAUGGAUGCAGUUCACAGACUAAAUGUCGGUCGGGGAAGAUGUAUUCUUCUCAUAAGAUAUAGUCGGACCUCUCCUUAAUGGGAGCUAGCGGAUGAAGUGAUGCAACACUGGAGCCGCUGGGAACUAAUUUGUAUGCGAAAGUAUAUUGAUUAGUUUUGGAGUACUCGUGGUCG
How it was run: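 DiMSum derived fitness as the error-weighted combination of fold changes across replicates, kanamycin versus no kanamycin, normalised to wild type. E. coli BL21(DE3) held the library, which randomised all eight P1ex-region intron nucleotides within the knt kanamycin-resistance gene on pET-22b(+). Six replicate transformations grew overnight at 37°C or 30°C on LB agar with or without 25 μg/mL kanamycin, also containing 100 μg/mL carbenicillin, 50 μM IPTG and 0.2% rhamnose, and pooled colonies were amplicon-sequenced on an Illumina HiSeq 2500.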

Sequence | self-splicing fitness (ln) (30 °C) | self-splicing fitness (ln) (37 °C)
GACAAGCAAUAUUACGGCUG | -0.552 ± 0.082 | -0.635 ± 0.11
GACAAGCAAUAUUACGGGUC | -3.73 ± 0.19 | -3.15 ± 0.28
GACAAGCAAUAUUACGGGUU | -3.38 ± 0.14 | -3.46 ± 0.17
GACAAGCAAUAUUACGGUCG | -1.22 ± 0.076 | -0.0208 ± 0.09
GACAAGCAAUAUUACGGUUA | -0.281 ± 0.079 | -0.186 ± 0.077
GACAAGCAAUAUUACGGUUC | -3.57 ± 0.16 | -2.81 ± 0.32
GACAAGCAAUAUUACGUAAU | -2.61 ± 0.088 | -1.16 ± 0.081
GACAAGCAAUAUUACGUAUA | -1.76 ± 0.15 | -1.79 ± 0.13
GACAAGCAAUAUUACGUGGG | -4.48 ± 0.2 | -1.87 ± 0.12
GACAAGCAAUAUUACGUGUU | -3.4 ± 0.12 | -2.21 ± 0.12
GACCAGCAAUAUUACGAAUG | -1.82 ± 0.071 | -1.49 ± 0.088
GACCAGCAAUAUUACGACAU | -0.634 ± 0.011 | -0.0858 ± 0.032
GACCAGCAAUAUUACGACGC | 0.184 ± 0.074 | -0.35 ± 0.085
GACCAGCAAUAUUACGAUCA | -1.38 ± 0.1 | -1.1 ± 0.12
GACCAGCAAUAUUACGAUGA | -0.717 ± 0.071 | -0.509 ± 0.085
GACCAGCAAUAUUACGCACA | -0.51 ± 0.05 | -0.0966 ± 0.07
GACCAGCAAUAUUACGCAUU | -0.15 ± 0.053 | 0.0155 ± 0.067
GACCAGCAAUAUUACGCGAC | -2.3 ± 0.11 | -1.04 ± 0.13
GACCAGCAAUAUUACGCUAA | -1.18 ± 0.078 | 0.196 ± 0.093
GACCAGCAAUAUUACGGAAU | -0.34 ± 0.046 | 0.128 ± 0.066
GACCAGCAAUAUUACGGACG | 0.108 ± 0.075 | 0.272 ± 0.094
GACCAGCAAUAUUACGGCGU | 0.046 ± 0.071 | 0.319 ± 0.087
GACCAGCAAUAUUACGUAGU | -0.667 ± 0.061 | -0.248 ± 0.077
